The target of assay [1] is human GLP-1 receptor (hGLP-1R) (human, UniProt P43220 24-463). Kind of assay: cell-based or functional assay.
Assay [2] addresses human glucagon receptor (hGCGR) (human, UniProt P47871 26-477). Briefly: cell-based or functional assay.

Starred links: 1 amine or outer side, 2 acyl side, 3 side chain; linkers in the order of their positions; H or OH if unused. Non-standard residues stand in square brackets, D forms with d. Groups on a side chain read outwards from the residue. No end group written: not given here. *: point of attachment. C20 diacid = O=C(O)CCCCCCCCCCCCCCCCCCC(=O)*; C18 diacid = O=C(O)CCCCCCCCCCCCCCCCC(=O)*; γGlu = O=C(O)[C@H](CCC(=O)[*:2])N[*:1]; αMeF = C[C@](N)(Cc1ccccc1)C(=O)O; AEEA = NCCOCCOCC(=O)O; Aib = CC(C)(N)C(=O)O

Data on eight molecules can be found in patent publication US20230357348A1 (AstraZeneca / MedImmune, published 2023).

Chain of human glucagon receptor (hGCGR) (P47871 26-477): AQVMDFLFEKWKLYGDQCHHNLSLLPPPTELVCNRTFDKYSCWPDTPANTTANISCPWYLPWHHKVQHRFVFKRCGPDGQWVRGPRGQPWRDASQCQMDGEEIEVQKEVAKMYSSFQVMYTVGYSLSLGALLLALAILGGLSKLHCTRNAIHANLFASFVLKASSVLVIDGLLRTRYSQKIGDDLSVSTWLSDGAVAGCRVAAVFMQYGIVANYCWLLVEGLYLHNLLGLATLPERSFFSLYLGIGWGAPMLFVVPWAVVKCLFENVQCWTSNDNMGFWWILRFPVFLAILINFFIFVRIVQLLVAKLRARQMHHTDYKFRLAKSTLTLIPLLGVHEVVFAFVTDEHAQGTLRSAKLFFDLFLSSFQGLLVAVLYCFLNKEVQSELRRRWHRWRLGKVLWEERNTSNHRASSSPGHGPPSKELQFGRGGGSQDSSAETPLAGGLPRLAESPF

B1: Peptide 510 (peptide)
peptide: H[Aib]QGTFTSDVSK[αMeF]LDTK([AEEA-AEEA-γGlu-C20 diacid])RARDFVRWLL[Aib]E-OH
modifications: N-terminus assumed
SMILES: CC(C)C[C@H](NC(=O)[C@H](Cc1c[nH]c2ccccc12)NC(=O)[C@H](CCCNC(=N)N)NC(=O)[C@@H](NC(=O)[C@H](Cc1ccccc1)NC(=O)[C@H](CC(=O)O)NC(=O)[C@H](CCCNC(=N)N)NC(=O)[C@H](C)NC(=O)[C@H](CCCNC(=N)N)NC(=O)[C@H](CCCCNC(=O)COCCOCCNC(=O)COCCOCCNC(=O)CC[C@H](NC(=O)CCCCCCCCCCCCCCCCCCC(=O)O)C(=O)O)NC(=O)[C@@H](NC(=O)[C@H](CC(=O)O)NC(=O)[C@H](CC(C)C)NC(=O)[C@](C)(Cc1ccccc1)NC(=O)[C@H](CCCCN)NC(=O)[C@H](CO)NC(=O)[C@@H](NC(=O)[C@H](CC(=O)O)NC(=O)[C@H](CO)NC(=O)[C@@H](NC(=O)[C@H](Cc1ccccc1)NC(=O)[C@@H](NC(=O)CNC(=O)[C@H](CCC(N)=O)NC(=O)C(C)(C)NC(=O)[C@@H](N)Cc1c[nH]cn1)[C@@H](C)O)[C@@H](C)O)C(C)C)[C@@H](C)O)C(C)C)C(=O)N[C@@H](CC(C)C)C(=O)NC(C)(C)C(=O)N[C@@H](CCC(=O)O)C(=O)O
As for B1, the “hGLP-1R EC50 (pM)” value in assay [1] was determined as 176 pM. For the same molecule, the “hGluc-R EC50 (pM)” value in assay [2] worked out at 118 pM.

B2: Peptide 513 (peptide)
peptide: H[Aib]QGT[αMeF]TSDVSK[αMeF]LDTK([AEEA-AEEA-γGlu-C18 diacid])RARD[αMeF]VQWLLA[Aib]G-NH2
modifications: N-terminus assumed
SMILES: CC(C)C[C@H](NC(=O)[C@H](CC(C)C)NC(=O)[C@H](Cc1c[nH]c2ccccc12)NC(=O)[C@H](CCC(N)=O)NC(=O)[C@@H](NC(=O)[C@](C)(Cc1ccccc1)NC(=O)[C@H](CC(=O)O)NC(=O)[C@H](CCCNC(=N)N)NC(=O)[C@H](C)NC(=O)[C@H](CCCNC(=N)N)NC(=O)[C@H](CCCCNC(=O)COCCOCCNC(=O)COCCOCCNC(=O)CC[C@H](NC(=O)CCCCCCCCCCCCCCCCC(=O)O)C(=O)O)NC(=O)[C@@H](NC(=O)[C@H](CC(=O)O)NC(=O)[C@H](CC(C)C)NC(=O)[C@](C)(Cc1ccccc1)NC(=O)[C@H](CCCCN)NC(=O)[C@H](CO)NC(=O)[C@@H](NC(=O)[C@H](CC(=O)O)NC(=O)[C@H](CO)NC(=O)[C@@H](NC(=O)[C@](C)(Cc1ccccc1)NC(=O)[C@@H](NC(=O)CNC(=O)[C@H](CCC(N)=O)NC(=O)C(C)(C)NC(=O)[C@@H](N)Cc1c[nH]cn1)[C@@H](C)O)[C@@H](C)O)C(C)C)[C@@H](C)O)C(C)C)C(=O)N[C@@H](C)C(=O)NC(C)(C)C(=O)NCC(N)=O
Consider B2, for which the “hGLP-1R EC50 (pM)” value in assay [1] was found to be 93.8 pM. The “hGluc-R EC50 (pM)” value in assay [2] was determined as 1340 pM.

As for H[Aib]QGTFTSDVSK[αMeF]LDTK([AEEA-AEEA-γGlu-C20 diacid])RARDFVAWLLE[Aib]G-NH2 [Peptide 507], in assay [1], the “hGLP-1R EC50 (pM)” value was 52.9 pM. Moreover, the “hGluc-R EC50 (pM)” value in assay [2] worked out at 86.6 pM.

B3: Peptide 506 (peptide)
peptide: H[Aib]QGTFTSDVSK[αMeF]LDTK([AEEA-AEEA-γGlu-C20 diacid])RARDFVAWLLE[Aib]G-OH
modifications: N-terminus assumed
SMILES: CC(C)C[C@H](NC(=O)[C@H](Cc1c[nH]c2ccccc12)NC(=O)[C@H](C)NC(=O)[C@@H](NC(=O)[C@H](Cc1ccccc1)NC(=O)[C@H](CC(=O)O)NC(=O)[C@H](CCCNC(=N)N)NC(=O)[C@H](C)NC(=O)[C@H](CCCNC(=N)N)NC(=O)[C@H](CCCCNC(=O)COCCOCCNC(=O)COCCOCCNC(=O)CC[C@H](NC(=O)CCCCCCCCCCCCCCCCCCC(=O)O)C(=O)O)NC(=O)[C@@H](NC(=O)[C@H](CC(=O)O)NC(=O)[C@H](CC(C)C)NC(=O)[C@](C)(Cc1ccccc1)NC(=O)[C@H](CCCCN)NC(=O)[C@H](CO)NC(=O)[C@@H](NC(=O)[C@H](CC(=O)O)NC(=O)[C@H](CO)NC(=O)[C@@H](NC(=O)[C@H](Cc1ccccc1)NC(=O)[C@@H](NC(=O)CNC(=O)[C@H](CCC(N)=O)NC(=O)C(C)(C)NC(=O)[C@@H](N)Cc1c[nH]cn1)[C@@H](C)O)[C@@H](C)O)C(C)C)[C@@H](C)O)C(C)C)C(=O)N[C@@H](CC(C)C)C(=O)N[C@@H](CCC(=O)O)C(=O)NC(C)(C)C(=O)NCC(=O)O
Turning to B3, the “hGLP-1R EC50 (pM)” value in assay [1] was found to be 162 pM. For the same molecule, in assay [2], the “hGluc-R EC50 (pM)” value is 149 pM.

B4: Peptide 512 (peptide)
peptide: H[Aib]QGT[αMeF]TSDVSK[αMeF]LDTK([AEEA-AEEA-γGlu-C18 diacid])RAQD[αMeF]VRWLLA[Aib]G-NH2
modifications: N-terminus assumed
SMILES: CC(C)C[C@H](NC(=O)[C@H](CC(C)C)NC(=O)[C@H](Cc1c[nH]c2ccccc12)NC(=O)[C@H](CCCNC(=N)N)NC(=O)[C@@H](NC(=O)[C@](C)(Cc1ccccc1)NC(=O)[C@H](CC(=O)O)NC(=O)[C@H](CCC(N)=O)NC(=O)[C@H](C)NC(=O)[C@H](CCCNC(=N)N)NC(=O)[C@H](CCCCNC(=O)COCCOCCNC(=O)COCCOCCNC(=O)CC[C@H](NC(=O)CCCCCCCCCCCCCCCCC(=O)O)C(=O)O)NC(=O)[C@@H](NC(=O)[C@H](CC(=O)O)NC(=O)[C@H](CC(C)C)NC(=O)[C@](C)(Cc1ccccc1)NC(=O)[C@H](CCCCN)NC(=O)[C@H](CO)NC(=O)[C@@H](NC(=O)[C@H](CC(=O)O)NC(=O)[C@H](CO)NC(=O)[C@@H](NC(=O)[C@](C)(Cc1ccccc1)NC(=O)[C@@H](NC(=O)CNC(=O)[C@H](CCC(N)=O)NC(=O)C(C)(C)NC(=O)[C@@H](N)Cc1c[nH]cn1)[C@@H](C)O)[C@@H](C)O)C(C)C)[C@@H](C)O)C(C)C)C(=O)N[C@@H](C)C(=O)NC(C)(C)C(=O)NCC(N)=O
Turning to B4, in assay [1], the “hGLP-1R EC50 (pM)” value was determined as 159 pM. Moreover, the “hGluc-R EC50 (pM)” value in assay [2] was 2310 pM.

B5: Peptide 511 (peptide)
peptide: H[Aib]QGTFTSDVSK[αMeF]LDTK([AEEA-AEEA-γGlu-C20 diacid])RARDFVRWLL[Aib]E-NH2
modifications: N-terminus assumed
SMILES: CC(C)C[C@H](NC(=O)[C@H](Cc1c[nH]c2ccccc12)NC(=O)[C@H](CCCNC(=N)N)NC(=O)[C@@H](NC(=O)[C@H](Cc1ccccc1)NC(=O)[C@H](CC(=O)O)NC(=O)[C@H](CCCNC(=N)N)NC(=O)[C@H](C)NC(=O)[C@H](CCCNC(=N)N)NC(=O)[C@H](CCCCNC(=O)COCCOCCNC(=O)COCCOCCNC(=O)CC[C@H](NC(=O)CCCCCCCCCCCCCCCCCCC(=O)O)C(=O)O)NC(=O)[C@@H](NC(=O)[C@H](CC(=O)O)NC(=O)[C@H](CC(C)C)NC(=O)[C@](C)(Cc1ccccc1)NC(=O)[C@H](CCCCN)NC(=O)[C@H](CO)NC(=O)[C@@H](NC(=O)[C@H](CC(=O)O)NC(=O)[C@H](CO)NC(=O)[C@@H](NC(=O)[C@H](Cc1ccccc1)NC(=O)[C@@H](NC(=O)CNC(=O)[C@H](CCC(N)=O)NC(=O)C(C)(C)NC(=O)[C@@H](N)Cc1c[nH]cn1)[C@@H](C)O)[C@@H](C)O)C(C)C)[C@@H](C)O)C(C)C)C(=O)N[C@@H](CC(C)C)C(=O)NC(C)(C)C(=O)N[C@@H](CCC(=O)O)C(N)=O
Regarding B5, the “hGLP-1R EC50 (pM)” value in assay [1] amounted to 118 pM. Besides, the “hGluc-R EC50 (pM)” value in assay [2] amounted to 140 pM.

B6: Peptide 508 (peptide)
peptide: H[Aib]QGTFTSDVSK[αMeF]LESK([AEEA-AEEA-γGlu-C20 diacid])RAQDFVRWLVE[Aib]G-NH2
modifications: N-terminus assumed
SMILES: CC(C)C[C@H](NC(=O)[C@H](Cc1c[nH]c2ccccc12)NC(=O)[C@H](CCCNC(=N)N)NC(=O)[C@@H](NC(=O)[C@H](Cc1ccccc1)NC(=O)[C@H](CC(=O)O)NC(=O)[C@H](CCC(N)=O)NC(=O)[C@H](C)NC(=O)[C@H](CCCNC(=N)N)NC(=O)[C@H](CCCCNC(=O)COCCOCCNC(=O)COCCOCCNC(=O)CC[C@H](NC(=O)CCCCCCCCCCCCCCCCCCC(=O)O)C(=O)O)NC(=O)[C@H](CO)NC(=O)[C@H](CCC(=O)O)NC(=O)[C@H](CC(C)C)NC(=O)[C@](C)(Cc1ccccc1)NC(=O)[C@H](CCCCN)NC(=O)[C@H](CO)NC(=O)[C@@H](NC(=O)[C@H](CC(=O)O)NC(=O)[C@H](CO)NC(=O)[C@@H](NC(=O)[C@H](Cc1ccccc1)NC(=O)[C@@H](NC(=O)CNC(=O)[C@H](CCC(N)=O)NC(=O)C(C)(C)NC(=O)[C@@H](N)Cc1c[nH]cn1)[C@@H](C)O)[C@@H](C)O)C(C)C)C(C)C)C(=O)N[C@H](C(=O)N[C@@H](CCC(=O)O)C(=O)NC(C)(C)C(=O)NCC(N)=O)C(C)C
For B6, the “hGLP-1R EC50 (pM)” value in assay [1] turned out to be 67.9 pM. In assay [2], the “hGluc-R EC50 (pM)” value was determined as 2800 pM.

B7: Peptide 505 (peptide)
peptide: H[Aib]QGTFTSDVSK[αMeF]LDTK([AEEA-AEEA-γGlu-C20 diacid])RAQDFVQWLLE[Aib]K-NH2
modifications: N-terminus assumed
SMILES: CC(C)C[C@H](NC(=O)[C@H](Cc1c[nH]c2ccccc12)NC(=O)[C@H](CCC(N)=O)NC(=O)[C@@H](NC(=O)[C@H](Cc1ccccc1)NC(=O)[C@H](CC(=O)O)NC(=O)[C@H](CCC(N)=O)NC(=O)[C@H](C)NC(=O)[C@H](CCCNC(=N)N)NC(=O)[C@H](CCCCNC(=O)COCCOCCNC(=O)COCCOCCNC(=O)CC[C@H](NC(=O)CCCCCCCCCCCCCCCCCCC(=O)O)C(=O)O)NC(=O)[C@@H](NC(=O)[C@H](CC(=O)O)NC(=O)[C@H](CC(C)C)NC(=O)[C@](C)(Cc1ccccc1)NC(=O)[C@H](CCCCN)NC(=O)[C@H](CO)NC(=O)[C@@H](NC(=O)[C@H](CC(=O)O)NC(=O)[C@H](CO)NC(=O)[C@@H](NC(=O)[C@H](Cc1ccccc1)NC(=O)[C@@H](NC(=O)CNC(=O)[C@H](CCC(N)=O)NC(=O)C(C)(C)NC(=O)[C@@H](N)Cc1c[nH]cn1)[C@@H](C)O)[C@@H](C)O)C(C)C)[C@@H](C)O)C(C)C)C(=O)N[C@@H](CC(C)C)C(=O)N[C@@H](CCC(=O)O)C(=O)NC(C)(C)C(=O)N[C@@H](CCCCN)C(N)=O
Regarding B7, the “hGLP-1R EC50 (pM)” value in assay [1] stood at 42.1 pM. In assay [2], the “hGluc-R EC50 (pM)” value is 191 pM.
